“And” between values parts separate entries of the source, which are not always exact repeats. Equal entries are not always repeated.

What is called stoichiometry N is a count of units in the complex or per binding partner.

This experiment concerns the target Brucella ovis PhyK (HWE-family histidine kinase, BOV_1602) (Brucella ovis). Kind of experiment: SEC. In general terms: SEC sorts molecules by how far they enter the pores of the column.

As for “Brucella ovis PhyK (HWE-family histidine kinase, BOV_1602) (enzyme)”, the stoichiometry N was 6 and 2.
